Data on two substances can be found in patent US20100028342A1.

Usually IC50 stands for the concentration needed to halve the response being measured. The term EC50 denotes the concentration needed to bring the measured effect to its halfway point. What is called Kd is the constant that tells how readily two partners part at equilibrium. In general, koff refers to a measure of how fast the partners let go of each other. As a reminder, the kon is the second-order rate constant of association.

Where only a bound is given, the exact number is not on record here.

In assay [1] the target is recombinant extracellular portion of human IGF-IR (soluble IGF-IR) (human) (UniProt P08069). Nature of the assay: competition: cold IGF-II against radiolabeled IGF-I on immobilized IGF-IR; cold IGF-II as competitor.
Assay [2] has the same target. In words: human IGF-IR binding ELISA, repeated with the same sample of A12.
For assay [3] the target is unchanged. Nature of the assay: BIAcore 3000, soluble IGF-IR immobilized on the sensor chip, full IgG in solution. A general note: SPR reads the build-up and loss of mass on a sensor chip optically.
The target is the same in assay [4]. In words: ligand blocking of IGF-I binding to IGF-IR, column Blocking (EC50).
The target is the same in assay [5]. In words: competition: blocking of radiolabeled IGF-I binding to immobilized IGF-IR.
Assay [6] has the same target. Nature of the assay: human IGF-IR-based ELISA, column Binding (ED50). In general terms: ELISA stands for enzyme-linked immunosorbent assay.
Assay [7] shares this target. Nature of the assay: ratio of plate binding: ED50 on human IGF-IR against the highest concentration tested on IR.

Chain of antibody A12 (fully human IgG1 anti-IGF-IR antibody) (VH): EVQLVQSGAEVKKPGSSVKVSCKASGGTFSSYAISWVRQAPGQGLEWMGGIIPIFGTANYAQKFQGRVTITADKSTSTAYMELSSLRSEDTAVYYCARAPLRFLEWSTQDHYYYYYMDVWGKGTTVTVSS
Chain of antibody A12 (fully human IgG1 anti-IGF-IR antibody) (VL): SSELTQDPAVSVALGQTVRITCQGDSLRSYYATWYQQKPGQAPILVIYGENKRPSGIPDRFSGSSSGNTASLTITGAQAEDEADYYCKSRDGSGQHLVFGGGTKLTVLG

Regarding “IGF-II (from UniProt P01344 25-91) (ligand)”, the IC50 in assay [1] is 6 nM.

In the case of “antibody A12 (fully human IgG1 anti-IGF-IR antibody)”, the EC50 in assay [2] fell in the range of 0.3 to 0.5 nM. Moreover, in assay [3], the dissociation constant (Kd) worked out at 0.041 nM, the koff was 3e-05 s⁻¹ and the kon stood at 720000 M⁻¹ s⁻¹. Also, in assay [4], the EC50 was 0.6 to 1 nM. In assay [5], the IC50 worked out at 1 nM. In assay [6], the EC50 came to 0.3 nM. For the same substance, the selectivity for IGF-IR in comparison to IR in assay [7] was more than 3000 fold.
